Molecular target: T1, B-cell maturation antigen (BCMA) (human, UniProt Q02223 1-184)
T1 sequence (looked up): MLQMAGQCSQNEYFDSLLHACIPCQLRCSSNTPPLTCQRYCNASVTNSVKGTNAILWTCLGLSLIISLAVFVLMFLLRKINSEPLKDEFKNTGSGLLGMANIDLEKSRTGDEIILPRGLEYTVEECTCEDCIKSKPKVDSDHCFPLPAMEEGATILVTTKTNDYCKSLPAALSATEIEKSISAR
Assay: cell-based or functional assay

B1: PF-06863135 (bispecific antibody, human IgG2)
heavy 1: EVQLLESGGGLVQPGGSLRLSCAASGFTFSSYPMSWVRQAPGKGLEWVSAIGGSGGSLPYADIVKGRFTISRDNSKNTLYLQMNSLRAEDTAVYYCARYWPMDIWGQGTLVTVSSASTKGPSVFPLAPCSRSTSESTAALGCLVKDYFPEPVTVSWNSGALTSGVHTFPAVLQSSGLYSLSSVVTVPSSNFGTQTYTCNVDHKPSNTKVDKTVERKCEVECPECPAPPVAGPSVFLFPPKPKDTLMISRTPEVTCVVVAVSHEDPEVQFNWYVDGVEVHNAKTKPREEQFNSTFRVVSVLTVVHQDWLNGKEYKCKVSNKGLPSSIEKTISKTKGQPREPQVYTLPPSREEMTKNQVSLTCEVKGFYPSDIAVEWESNGQPENNYKTTPPMLDSDGSFFLYSKLTVDKSRWQQGNVFSCSVMHEALHNHYTQKSLSLSPGK
light 1: EIVLTQSPGTLSLSPGERATLSCRASQSVSSSYLAWYQQKPGQAPRLLMYDASIRATGIPDRFSGSGSGTDFTLTISRLEPEDFAVYYCQQYQSWPLTFGQGTKVEIKRTVAAPSVFIFPPSDEQLKSGTASVVCLLNNFYPREAKVQWKVDNALQSGNSQESVTEQDSKDSTYSLSSTLTLSKADYEKHKVYACEVTHQGLSSPVTKSFNRGEC
heavy 2: EVQLVESGGGLVQPGGSLRLSCAASGFTFSDYYMTWVRQAPGKGLEWVAFIRNRARGYTSDHNPSVKGRFTISRDNAKNSLYLQMNSLRAEDTAVYYCARDRPSYYVLDYWGQGTTVTVSSASTKGPSVFPLAPCSRSTSESTAALGCLVKDYFPEPVTVSWNSGALTSGVHTFPAVLQSSGLYSLSSVVTVPSSNFGTQTYTCNVDHKPSNTKVDKTVERKCRVRCPRCPAPPVAGPSVFLFPPKPKDTLMISRTPEVTCVVVAVSHEDPEVQFNWYVDGVEVHNAKTKPREEQFNSTFRVVSVLTVVHQDWLNGKEYKCKVSNKGLPSSIEKTISKTKGQPREPQVYTLPPSREEMTKNQVSLTCLVKGFYPSDIAVEWESNGQPENNYKTTPPMLDSDGSFFLYSRLTVDKSRWQQGNVFSCSVMHEALHNHYTQKSLSLSPGK
light 2: not shown
EC50 of cell viability (killing) of H929-Luc cells co-cultured with human CD3+ T cells, 72 hr, luminescence; with GSI: 0.0055 nM | EC50 of cell viability (killing) of H929-Luc cells co-cultured with human CD3+ T cells, 72 hr, luminescence; without GSI: 0.167 nM | EC50 of cell viability (killing) of Molp8-Luc cells co-cultured with human CD3+ T cells, 72 hr, luminescence; with GSI: 0.0202 nM | EC50 of cell viability (killing) of Molp8-Luc cells co-cultured with human CD3+ T cells, 72 hr, luminescence; without GSI: 0.108 nM | EC50 of cell viability (killing) of OPM2-Luc cells co-cultured with human CD3+ T cells, 72 hr, luminescence; with GSI: 0.0033 nM | EC50 of cell viability (killing) of OPM2-Luc cells co-cultured with human CD3+ T cells, 72 hr, luminescence; without GSI: 0.0528 nM | EC50 of cell viability (killing) of RPMI8226-Luc cells co-cultured with human CD3+ T cells, 72 hr, luminescence; with GSI: 0.0017 nM | EC50 of cell viability (killing) of RPMI8226-Luc cells co-cultured with human CD3+ T cells, 72 hr, luminescence; without GSI: 0.0092 nM

From US20230340137A1 (published 2023)
